Experiments:
[1] = target: human FcγRIIIA V158 (human) (UniProt P08637); test: competition flow cytometry on CHO DG-44 cells expressing human FcγRIIIA V158; competitor 50 nmol/L Alexa Fluor 488 labeled anti-CD70 IgG1
[2] = target: murine FcγRIV (murine); test: competition flow cytometry on CHO DG-44 cells expressing murine FcγRIV; competitor Alexa Fluor 488 labeled anti-CD70 IgG1
[3] = target: human FcγRIIIA V158 (human) (UniProt P08637); test: competition flow cytometry on CHO DG-44 cells expressing human FcγRIIIA V158; competitor Alexa Fluor 488 labeled anti-CD70 IgG1
[4] = target: murine FcγRIV (murine); test: competition flow cytometry on CHO DG-44 cells expressing murine FcγRIV; competitor 200 nmol/L Alexa Fluor 488 labeled anti-CD70 IgG1

murine FcγRIV (murine), sequence (A0A0B4 entry or part of it limits assumed): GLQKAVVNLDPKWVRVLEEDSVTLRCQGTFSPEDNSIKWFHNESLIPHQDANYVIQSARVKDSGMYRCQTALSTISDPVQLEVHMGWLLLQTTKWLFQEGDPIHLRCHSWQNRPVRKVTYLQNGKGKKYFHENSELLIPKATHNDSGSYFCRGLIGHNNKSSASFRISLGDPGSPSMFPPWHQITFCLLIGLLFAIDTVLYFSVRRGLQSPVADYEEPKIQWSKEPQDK
human FcγRIIIA V158 (human), sequence (P08637 17-254 F176V): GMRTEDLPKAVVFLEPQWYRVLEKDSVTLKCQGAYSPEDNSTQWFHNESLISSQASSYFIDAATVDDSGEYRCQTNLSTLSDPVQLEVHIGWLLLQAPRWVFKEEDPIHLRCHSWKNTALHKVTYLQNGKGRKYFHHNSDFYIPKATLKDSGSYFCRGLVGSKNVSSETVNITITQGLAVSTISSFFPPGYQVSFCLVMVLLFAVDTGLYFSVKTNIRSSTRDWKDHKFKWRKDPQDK

An EC50 [1] of 0.00799 µM, a fold difference in EC50 against the parent (control) anti-CD70 antibody [2] of 18 fold and a fold difference in EC50 against the parent antibody [3] of 14 fold were found for “h1F6 antibody from host cells cultured in the presence of 50 µM alkynyl fucose peracetate (non-core fucosylated anti-CD70 antibody)” in this work. It also gave an EC50 [4] of 0.0208 µM.

Source: patent publication US20190276796A1
